From PMC8591083, “Catechol 1,2-Dioxygenase From Paracoccus sp. MKU1—A Greener and Cleaner Bio-Machinery for cis, cis-Muconic Acid Production by Recombinant E. coli” (Frontiers in Bioengineering and Biotechnology, 2021)

Assays:
[1] = tested on: Oc1ccccc1O; test: purified protein; conditions: 50 mM Tris-HCl pH 7.5, 37 °C, 20 min, catechol 0-200 µM, substrate O2 from air
[2] = molecular target: Catechol 1,2-dioxygenase from Paracoccus sp. MKU1 (Paracoccus sp. MKU1); test: SEC; purified C12O on Sephacryl S-300 HR, 50 mM Tris-HCl pH 8.5, 1 ml/min, A280; calibrated with NativeMark standards (20-1,236 kDa)

Row | stoichiometry N [2] | Substance | Km [1] | kcat [1]
1 |  | Catechol 1,2-dioxygenase (C12O) (Paracoccus sp. MKU1) | 12.89 µM | 199.5 s⁻¹
2 | 3 | Catechol 1,2-dioxygenase from Paracoccus sp. MKU1 (enzyme) |  | 
